According to publication PMC4383501, “Computational Selection of RNA Aptamer against Angiopoietin-2 and Experimental Evaluation”:
Residue numbers refer to the chain shown, from its start.

How the values were obtained:
[1] = molecular target: T1, Angiopoietin-2 (Ang2), active human (human, UniProt O15123 19-496); test: SPR; kon 1.66e3 M-1s-1; koff 4.99e-3 s-1; described as very weak, partly nonspecific adsorption; SPR imaging, biotinylated RNA on streptavidin/BAT-PEG chip, 0.5 uM Ang2 in TBS pH 7.4, 9 min association, 6 min TBS rinse; temperature not stated; conditions: protein: commercial; label: 5' biotin; single strand
Angiopoietin-2 (human) = Angiopoietin-2 (human) (Homo sapiens (Human), UniProt O15123 19-496); test: SPR; TBS pH 7.4, 25 C; conditions: label: 5'-biotin (5'-A5 is a spacer)
[2] = molecular target: T1, Angiopoietin-2 (Ang2), active human; test: SPR; kon 10.02e3 M-1s-1; koff 1.39e-3 s-1; SPR imaging, biotinylated RNA on streptavidin/BAT-PEG chip, 0.5 uM Ang2 in TBS pH 7.4, 9 min association, 6 min TBS rinse; temperature not stated; conditions: protein: commercial; label: 5' biotin; single strand
[3] = molecular target: T1, Angiopoietin-2 (Ang2), active human; test: SPR; kon 6.03e3 M-1s-1; koff 0.61e-3 s-1; SPR imaging, biotinylated RNA on streptavidin/BAT-PEG chip, 0.5 uM Ang2 in TBS pH 7.4, 9 min association, 6 min TBS rinse; temperature not stated; conditions: protein: commercial; label: 5' biotin; single strand
[4] = molecular target: T1, Angiopoietin-2 (Ang2), active human; test: SPR; kon 8.22e3 M-1s-1; koff 0.97e-3 s-1; SPR imaging, biotinylated RNA on streptavidin/BAT-PEG chip, 0.5 uM Ang2 in TBS pH 7.4, 9 min association, 6 min TBS rinse; temperature not stated; conditions: protein: commercial; label: 5' biotin; single strand
[5] = molecular target: T1, Angiopoietin-2 (Ang2), active human; test: SPR; kon 4.07e3 M-1s-1; koff 0.79e-3 s-1; SPR imaging, biotinylated RNA on streptavidin/BAT-PEG chip, 0.5 uM Ang2 in TBS pH 7.4, 9 min association, 6 min TBS rinse; temperature not stated; conditions: protein: commercial; label: 5' biotin; single strand

T1 sequence (O15123 19-496): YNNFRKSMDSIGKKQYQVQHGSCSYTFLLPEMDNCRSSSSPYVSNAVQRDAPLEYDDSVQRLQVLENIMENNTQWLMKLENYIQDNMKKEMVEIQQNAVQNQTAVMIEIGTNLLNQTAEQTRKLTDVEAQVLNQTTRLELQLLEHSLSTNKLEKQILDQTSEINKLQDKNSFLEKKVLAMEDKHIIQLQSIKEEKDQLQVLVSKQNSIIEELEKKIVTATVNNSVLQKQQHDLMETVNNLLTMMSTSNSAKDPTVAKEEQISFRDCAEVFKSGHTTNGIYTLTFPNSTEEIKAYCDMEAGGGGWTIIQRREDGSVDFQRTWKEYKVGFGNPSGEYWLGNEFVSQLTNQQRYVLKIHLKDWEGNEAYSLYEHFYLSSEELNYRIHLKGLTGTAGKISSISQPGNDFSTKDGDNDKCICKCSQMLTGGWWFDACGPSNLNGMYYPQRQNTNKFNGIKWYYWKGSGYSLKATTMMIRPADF
Sequence of Angiopoietin-2 (human) (O15123 19-496): as above

B1: Seq16 (biotin-A5), Ang1-specific aptamer (ssRNA)
RNA: AAAAAACUCGAACAUUUCCACUAACCAACCAUACUAAAGCACCGC
Ka [1]: 0.33 10^6 M^-1

B2: Seq16 (Ang1 aptamer / negative control) (ssRNA)
RNA: B1 RNA
Kd (Angiopoietin-2 (human)): 3030 nM

B3: Seq1 (biotin-A5) (ssRNA)
RNA: AAAAAACUAGCCUCAUCAGCUCAUGUGCCCCUCCGCCUGGAUCAC
Ka [2]: 7.23 10^6 M^-1

B4: Seq1 (ssRNA)
RNA: B3 RNA
Kd (Angiopoietin-2 (human)): 138 nM

B5: Seq15_12_35 (biotin-A5) (ssRNA)
RNA: AAAAAGAGGACGAUGCCGACUAGCCUCAUCAGCUCAUGUCCCCCUC
Ka [3]: 9.89 10^6 M^-1

B6: Seq15_15_38 (biotin-A5) (ssRNA)
RNA: B5 RNA with C17G, C20U, C40G, C43G
Ka [4]: 8.47 10^6 M^-1

B7: Seq2_12_35 (biotin-A5) (ssRNA)
RNA: AAAAAUUAACCAUCAGAUCAUGGCCCCUGCCCUCUCAAGCACCAC
Ka [5]: 5.15 10^6 M^-1
